This is an account of results in patent US8652467B2, “Dek protein compositions and methods of using the same” (The Regents of the University of Michigan, priority 2005, dated 2014).

The subject of the assay is purified neutrophils (PMN). Nature of the assay: In vitro migration assay with purified neutrophils. In kind it is cell-based, human. The conditions noted are these: various concentrations of recombinant DEK in lower chamber; 79 nM vs control. Here is the method:
Purified neutrophils (PMN) were treated with IL-8 (50 nM), the CXCR2 small molecule inhibitor SB225002 (3 μM), DEK (79 nM), IL-8 plus SB225002, or DEK plus SB225002 for 5 min at room temperature before and then during the migration assay. After 1 h, the number of fluorescently labeled migrating cells in the lower chamber was determined at 485 nM/535 nm wavelengths by Tecan GENios (Phenix, Austria). […] The results are expressed as the average fold increase in the number of cells migrating toward DEK compared to control wells containing medium only. White blood cells were isolated from venous blood from healthy donors as described above, and were depleted of monocytes by adherence to plastic for 2 h as described in the Cell Preparation section. […] The cells were washed and resuspended at 1×10^6 cells/ml in serum-free RPMI medium, and 1×10^5 labeled cells in 100 μl were added to the upper chamber of a 24-well Transwell chemotaxis insert with pore size of 3 μm or 5 μm (Corning, N.Y.). The lower chambers contained serum-free RPMI medium alone, recombinant DEK made in baculovirus, or a deletion mutant of the β form of human GLI-2 (See, e.g., Smith et al., J Virol 75, 2301-13 (2001)) produced in baculovirus as the control protein. After 30 min to 1 h, the number of fluorescently labeled migrating cells in the lower chamber was determined at […] wavelength using a Tecan GENios plate-reader (Phenix, Austria). The results were expressed as the average fold increase of the number of cells migrating toward lower chambers containing DEK divided by the number of cells migrating toward the control wells (medium alone). Forty ml of venous blood was collected from healthy volunteers into a 50 ml sterile syringe containing a mixture of 7 ml 0.25 M Citrate (0.17 M NA Citrate and 0.083 M Citric Acid) and 6% Dextran in PBS buffer. The blood was incubated for 30 min at room temperature and the upper phase was collected and further separated by Ficoll as described above. The neutrophil fraction was collected and washed with HBSS buffer and then pelleted again. […]

“Also recorded” adds a separate entry of the source.

B1: DEK: full-length recombinant DEK protein produced in baculovirus (protein, UniProt P35659 1-375, looked up)
chain: MSASAPAAEGEGTPTQPASEKEPEMPGPREESEEEEDEDDEEEEEEEKEKSLIVEGKREKKKVERLTMQVSSLQREPFTIAQGKGQKLCEIERIHFFLSKKKTDELRNLHKLLYNRPGTVSSLKKNVGQFSGFPFEKGSVQYKKKEEMLKKFRNAMLKSICEVLDLERSGVNSELVKRILNFLMHPKPSGKPLPKSKKTCSKGSKKERNSSGMARKAKRTKCPEILSDESSSDEDEKKNKEESSDDEDKESEEEPPKKTAKREKPKQKATSKSKKSVKSANVKKADSSTTKKNQNSSKKESESEDSSDDEPLIKKLKKPPTDEELKETIKKLLASANLEEVTMKQICKKVYENYPTYDLTERKDFIKTTVKELIS
modifications: full-length
notes: full-length recombinant DEK protein produced in baculovirus
With B1, the “neutrophil migration toward DEK” value is given as “statistically significant; also recorded: specifically migrate toward DEK in a dose-dependent manner”.
